The source of these data is US20140213513A1 (Sanofi, priority 2012, published 2014).

What all share (test): cell-based or functional assay
For one assay, the target named is T1, human GIP receptor (human, UniProt P48546 22-466).
T1 sequence (looked up): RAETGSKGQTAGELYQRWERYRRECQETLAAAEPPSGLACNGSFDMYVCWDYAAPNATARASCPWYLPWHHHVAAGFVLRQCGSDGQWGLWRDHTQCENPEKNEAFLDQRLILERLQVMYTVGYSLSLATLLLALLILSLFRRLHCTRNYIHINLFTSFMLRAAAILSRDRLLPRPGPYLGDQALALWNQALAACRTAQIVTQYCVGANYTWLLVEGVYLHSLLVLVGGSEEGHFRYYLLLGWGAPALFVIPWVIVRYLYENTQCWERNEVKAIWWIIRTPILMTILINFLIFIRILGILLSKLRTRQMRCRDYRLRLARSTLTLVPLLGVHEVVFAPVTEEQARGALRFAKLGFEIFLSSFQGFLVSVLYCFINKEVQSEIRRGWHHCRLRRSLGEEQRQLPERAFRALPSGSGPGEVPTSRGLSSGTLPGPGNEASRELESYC

Another assay deals with human glucagon receptor (human, UniProt P47871 26-477).
For another assay, the target named is human GLP-1 receptor (human, UniProt P43220 24-463).

*1 amine or outer side, *2 acyl side, *3 side chain or, on linkers, in order; H or OH if unused. Where no end group is shown, it is not given here. Side-chain parts run from the residue outwards. [ ]: non-standard residue; d: D form. The star is where a group is joined. γGlu = O=C(O)[C@H](CCC(=O)[*:2])N[*:1]; Stearoyl = CCCCCCCCCCCCCCCCCC(=O)*; Palmitoyl = CCCCCCCCCCCCCCCC(=O)*; Aib = CC(C)(N)C(=O)O

Chain of human glucagon receptor (P47871 26-477): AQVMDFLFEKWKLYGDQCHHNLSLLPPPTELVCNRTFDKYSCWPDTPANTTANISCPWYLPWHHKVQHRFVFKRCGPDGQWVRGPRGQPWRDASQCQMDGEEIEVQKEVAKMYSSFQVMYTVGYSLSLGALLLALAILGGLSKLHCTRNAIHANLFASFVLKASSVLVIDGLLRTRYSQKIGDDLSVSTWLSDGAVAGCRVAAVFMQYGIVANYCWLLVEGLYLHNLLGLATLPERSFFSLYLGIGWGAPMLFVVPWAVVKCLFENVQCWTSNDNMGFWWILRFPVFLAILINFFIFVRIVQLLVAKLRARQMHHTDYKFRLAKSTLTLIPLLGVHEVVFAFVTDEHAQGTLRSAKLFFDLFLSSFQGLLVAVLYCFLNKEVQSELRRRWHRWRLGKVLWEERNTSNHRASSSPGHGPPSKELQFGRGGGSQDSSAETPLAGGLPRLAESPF

B1: exendin-4 peptide analogue SEQ ID NO: 34 (peptide)
peptide: Y[Aib]QGTFTSDLSIQK([γGlu-Palmitoyl])DSRAAQDFIEWLKRGGPSSGAPPPS-NH2
modifications: N-terminus assumed
SMILES: CCCCCCCCCCCCCCCC(=O)N[C@@H](CCC(=O)NCCCC[C@H](NC(=O)[C@H](CCC(N)=O)NC(=O)[C@@H](NC(=O)[C@H](CO)NC(=O)[C@H](CC(C)C)NC(=O)[C@H](CC(=O)O)NC(=O)[C@H](CO)NC(=O)[C@@H](NC(=O)[C@H](Cc1ccccc1)NC(=O)[C@@H](NC(=O)CNC(=O)[C@H](CCC(N)=O)NC(=O)C(C)(C)NC(=O)[C@@H](N)Cc1ccc(O)cc1)[C@@H](C)O)[C@@H](C)O)[C@@H](C)CC)C(=O)N[C@@H](CC(=O)O)C(=O)N[C@@H](CO)C(=O)N[C@@H](CCCNC(=N)N)C(=O)N[C@@H](C)C(=O)N[C@@H](C)C(=O)N[C@@H](CCC(N)=O)C(=O)N[C@@H](CC(=O)O)C(=O)N[C@@H](Cc1ccccc1)C(=O)N[C@H](C(=O)N[C@@H](CCC(=O)O)C(=O)N[C@@H](Cc1c[nH]c2ccccc12)C(=O)N[C@@H](CC(C)C)C(=O)N[C@@H](CCCCN)C(=O)N[C@@H](CCCNC(=N)N)C(=O)NCC(=O)NCC(=O)N1CCC[C@H]1C(=O)N[C@@H](CO)C(=O)N[C@@H](CO)C(=O)NCC(=O)N[C@@H](C)C(=O)N1CCC[C@H]1C(=O)N1CCC[C@H]1C(=O)N1CCC[C@H]1C(=O)N[C@@H](CO)C(N)=O)[C@@H](C)CC)C(=O)O
Take B1: the “EC50 hGIP R” value with human GIP receptor came out at 0.0513 nM. Moreover, in the assay with human glucagon receptor, the “EC50 hGLUC R” value stood at 0.222 nM. In addition, in the assay with human GLP-1 receptor, the “EC50 hGLP-1 R” value amounted to 0.0074 nM.

B2: exendin-4 peptide analogue SEQ ID NO: 35 (peptide)
peptide: Y[Aib]QGTFTSDLSIQK([γGlu-Palmitoyl])DERAAKDFIEWLKAGGPSSGAPPPS-NH2
modifications: N-terminus assumed
SMILES: CCCCCCCCCCCCCCCC(=O)N[C@@H](CCC(=O)NCCCC[C@H](NC(=O)[C@H](CCC(N)=O)NC(=O)[C@@H](NC(=O)[C@H](CO)NC(=O)[C@H](CC(C)C)NC(=O)[C@H](CC(=O)O)NC(=O)[C@H](CO)NC(=O)[C@@H](NC(=O)[C@H](Cc1ccccc1)NC(=O)[C@@H](NC(=O)CNC(=O)[C@H](CCC(N)=O)NC(=O)C(C)(C)NC(=O)[C@@H](N)Cc1ccc(O)cc1)[C@@H](C)O)[C@@H](C)O)[C@@H](C)CC)C(=O)N[C@@H](CC(=O)O)C(=O)N[C@@H](CCC(=O)O)C(=O)N[C@@H](CCCNC(=N)N)C(=O)N[C@@H](C)C(=O)N[C@@H](C)C(=O)N[C@@H](CCCCN)C(=O)N[C@@H](CC(=O)O)C(=O)N[C@@H](Cc1ccccc1)C(=O)N[C@H](C(=O)N[C@@H](CCC(=O)O)C(=O)N[C@@H](Cc1c[nH]c2ccccc12)C(=O)N[C@@H](CC(C)C)C(=O)N[C@@H](CCCCN)C(=O)N[C@@H](C)C(=O)NCC(=O)NCC(=O)N1CCC[C@H]1C(=O)N[C@@H](CO)C(=O)N[C@@H](CO)C(=O)NCC(=O)N[C@@H](C)C(=O)N1CCC[C@H]1C(=O)N1CCC[C@H]1C(=O)N1CCC[C@H]1C(=O)N[C@@H](CO)C(N)=O)[C@@H](C)CC)C(=O)O
For B2, the “EC50 hGIP R” value with human GIP receptor was determined as 0.0182 nM. In the assay with human glucagon receptor, the “EC50 hGLUC R” value was determined as 0.123 nM. Also, in the assay with human GLP-1 receptor, the “EC50 hGLP-1 R” value is 0.0035 nM.

B3: exendin-4 peptide analogue SEQ ID NO: 36 (peptide)
peptide: Y[Aib]QGTFTSDLSIQK([γGlu-Palmitoyl])EKRAAHEFIEWLKNTGPSSGAPPPS-NH2
modifications: N-terminus assumed
SMILES: CCCCCCCCCCCCCCCC(=O)N[C@@H](CCC(=O)NCCCC[C@H](NC(=O)[C@H](CCC(N)=O)NC(=O)[C@@H](NC(=O)[C@H](CO)NC(=O)[C@H](CC(C)C)NC(=O)[C@H](CC(=O)O)NC(=O)[C@H](CO)NC(=O)[C@@H](NC(=O)[C@H](Cc1ccccc1)NC(=O)[C@@H](NC(=O)CNC(=O)[C@H](CCC(N)=O)NC(=O)C(C)(C)NC(=O)[C@@H](N)Cc1ccc(O)cc1)[C@@H](C)O)[C@@H](C)O)[C@@H](C)CC)C(=O)N[C@@H](CCC(=O)O)C(=O)N[C@@H](CCCCN)C(=O)N[C@@H](CCCNC(=N)N)C(=O)N[C@@H](C)C(=O)N[C@@H](C)C(=O)N[C@@H](Cc1c[nH]cn1)C(=O)N[C@@H](CCC(=O)O)C(=O)N[C@@H](Cc1ccccc1)C(=O)N[C@H](C(=O)N[C@@H](CCC(=O)O)C(=O)N[C@@H](Cc1c[nH]c2ccccc12)C(=O)N[C@@H](CC(C)C)C(=O)N[C@@H](CCCCN)C(=O)N[C@@H](CC(N)=O)C(=O)N[C@H](C(=O)NCC(=O)N1CCC[C@H]1C(=O)N[C@@H](CO)C(=O)N[C@@H](CO)C(=O)NCC(=O)N[C@@H](C)C(=O)N1CCC[C@H]1C(=O)N1CCC[C@H]1C(=O)N1CCC[C@H]1C(=O)N[C@@H](CO)C(N)=O)[C@@H](C)O)[C@@H](C)CC)C(=O)O
For B3, the “EC50 hGIP R” value with human GIP receptor turned out to be 0.0301 nM. Also, the “EC50 hGLUC R” value with human glucagon receptor came out at 0.0395 nM. For the same molecule, in the assay with human GLP-1 receptor, the “EC50 hGLP-1 R” value turned out to be 0.0052 nM.

B4: exendin-4 peptide analogue SEQ ID NO: 32 (peptide)
peptide: Y[Aib]HGTFTSDLSIQK([γGlu-Stearoyl])EKRAAFEFIEWLKNTGPSSGAPPPS-NH2
modifications: N-terminus assumed
SMILES: CCCCCCCCCCCCCCCCCC(=O)N[C@@H](CCC(=O)NCCCC[C@H](NC(=O)[C@H](CCC(N)=O)NC(=O)[C@@H](NC(=O)[C@H](CO)NC(=O)[C@H](CC(C)C)NC(=O)[C@H](CC(=O)O)NC(=O)[C@H](CO)NC(=O)[C@@H](NC(=O)[C@H](Cc1ccccc1)NC(=O)[C@@H](NC(=O)CNC(=O)[C@H](Cc1c[nH]cn1)NC(=O)C(C)(C)NC(=O)[C@@H](N)Cc1ccc(O)cc1)[C@@H](C)O)[C@@H](C)O)[C@@H](C)CC)C(=O)N[C@@H](CCC(=O)O)C(=O)N[C@@H](CCCCN)C(=O)N[C@@H](CCCNC(=N)N)C(=O)N[C@@H](C)C(=O)N[C@@H](C)C(=O)N[C@@H](Cc1ccccc1)C(=O)N[C@@H](CCC(=O)O)C(=O)N[C@@H](Cc1ccccc1)C(=O)N[C@H](C(=O)N[C@@H](CCC(=O)O)C(=O)N[C@@H](Cc1c[nH]c2ccccc12)C(=O)N[C@@H](CC(C)C)C(=O)N[C@@H](CCCCN)C(=O)N[C@@H](CC(N)=O)C(=O)N[C@H](C(=O)NCC(=O)N1CCC[C@H]1C(=O)N[C@@H](CO)C(=O)N[C@@H](CO)C(=O)NCC(=O)N[C@@H](C)C(=O)N1CCC[C@H]1C(=O)N1CCC[C@H]1C(=O)N1CCC[C@H]1C(=O)N[C@@H](CO)C(N)=O)[C@@H](C)O)[C@@H](C)CC)C(=O)O
In the case of B4, in the assay with human GIP receptor, the “EC50 hGIP R” value amounted to 0.0335 nM. Moreover, the “EC50 hGLUC R” value with human glucagon receptor turned out to be 0.0192 nM. Further, the “EC50 hGLP-1 R” value in the assay with human GLP-1 receptor worked out at 0.0417 nM.

B5: exendin-4 peptide analogue SEQ ID NO: 30 (peptide)
peptide: Y[Aib]EGTFTSDLSKQK([γGlu-Palmitoyl])DKRAAQDFIEWLKNGGPSSGAPPPS-NH2
modifications: N-terminus assumed
SMILES: CCCCCCCCCCCCCCCC(=O)N[C@@H](CCC(=O)NCCCC[C@H](NC(=O)[C@H](CCC(N)=O)NC(=O)[C@H](CCCCN)NC(=O)[C@H](CO)NC(=O)[C@H](CC(C)C)NC(=O)[C@H](CC(=O)O)NC(=O)[C@H](CO)NC(=O)[C@@H](NC(=O)[C@H](Cc1ccccc1)NC(=O)[C@@H](NC(=O)CNC(=O)[C@H](CCC(=O)O)NC(=O)C(C)(C)NC(=O)[C@@H](N)Cc1ccc(O)cc1)[C@@H](C)O)[C@@H](C)O)C(=O)N[C@@H](CC(=O)O)C(=O)N[C@@H](CCCCN)C(=O)N[C@@H](CCCNC(=N)N)C(=O)N[C@@H](C)C(=O)N[C@@H](C)C(=O)N[C@@H](CCC(N)=O)C(=O)N[C@@H](CC(=O)O)C(=O)N[C@@H](Cc1ccccc1)C(=O)N[C@H](C(=O)N[C@@H](CCC(=O)O)C(=O)N[C@@H](Cc1c[nH]c2ccccc12)C(=O)N[C@@H](CC(C)C)C(=O)N[C@@H](CCCCN)C(=O)N[C@@H](CC(N)=O)C(=O)NCC(=O)NCC(=O)N1CCC[C@H]1C(=O)N[C@@H](CO)C(=O)N[C@@H](CO)C(=O)NCC(=O)N[C@@H](C)C(=O)N1CCC[C@H]1C(=O)N1CCC[C@H]1C(=O)N1CCC[C@H]1C(=O)N[C@@H](CO)C(N)=O)[C@@H](C)CC)C(=O)O
For B5, in the assay with human GIP receptor, the “EC50 hGIP R” value was 0.0163 nM. Further, the “EC50 hGLUC R” value in the assay with human glucagon receptor amounted to 1.45 nM. Also, the “EC50 hGLP-1 R” value with human GLP-1 receptor turned out to be 0.005 nM.

B6: exendin-4 peptide analogue SEQ ID NO: 31 (peptide)
peptide: Y[Aib]QGTFTSDLSIQK([γGlu-Stearoyl])DEQRAKEFIEWLKAGGPSSGAPPPS-NH2
modifications: N-terminus assumed
SMILES: CCCCCCCCCCCCCCCCCC(=O)N[C@@H](CCC(=O)NCCCC[C@H](NC(=O)[C@H](CCC(N)=O)NC(=O)[C@@H](NC(=O)[C@H](CO)NC(=O)[C@H](CC(C)C)NC(=O)[C@H](CC(=O)O)NC(=O)[C@H](CO)NC(=O)[C@@H](NC(=O)[C@H](Cc1ccccc1)NC(=O)[C@@H](NC(=O)CNC(=O)[C@H](CCC(N)=O)NC(=O)C(C)(C)NC(=O)[C@@H](N)Cc1ccc(O)cc1)[C@@H](C)O)[C@@H](C)O)[C@@H](C)CC)C(=O)N[C@@H](CC(=O)O)C(=O)N[C@@H](CCC(=O)O)C(=O)N[C@@H](CCC(N)=O)C(=O)N[C@@H](CCCNC(=N)N)C(=O)N[C@@H](C)C(=O)N[C@@H](CCCCN)C(=O)N[C@@H](CCC(=O)O)C(=O)N[C@@H](Cc1ccccc1)C(=O)N[C@H](C(=O)N[C@@H](CCC(=O)O)C(=O)N[C@@H](Cc1c[nH]c2ccccc12)C(=O)N[C@@H](CC(C)C)C(=O)N[C@@H](CCCCN)C(=O)N[C@@H](C)C(=O)NCC(=O)NCC(=O)N1CCC[C@H]1C(=O)N[C@@H](CO)C(=O)N[C@@H](CO)C(=O)NCC(=O)N[C@@H](C)C(=O)N1CCC[C@H]1C(=O)N1CCC[C@H]1C(=O)N1CCC[C@H]1C(=O)N[C@@H](CO)C(N)=O)[C@@H](C)CC)C(=O)O
As for B6, the “EC50 hGIP R” value with human GIP receptor is 0.0131 nM. For the same molecule, in the assay with human glucagon receptor, the “EC50 hGLUC R” value is 0.0041 nM. For the same molecule, the “EC50 hGLP-1 R” value with human GLP-1 receptor amounted to 0.0148 nM.
